Laboratory results taken from the nanobody polyreactivity screen of Harvey et al. (2022).

Experiment: yeast display, Sf9 membrane polyspecificity reagent, FACS + sequencing; frameworks hold sequencing errors
How it was run: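 Sorting gates, low and high (top ~1%), were placed on anti-HA fluorescence to track expression and on streptavidin fluorescence to track reagent binding. A clone's polyreactivity label is taken from the gate it came out of. The reagent was 10% biotinylated, detergent-solubilized Sf9 membrane, applied for 1 hour at 4 °C to galactose-induced yeast display cells.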
For “QVQLVESGGGLVQAGGSLRLSCAASGFIFKRYAMGWYRQAPGKERELVAVITRSGGSTYYADSVKGRFTISRDNAKNTVYLQMNSLKPEDTAVYYCAVDFTDRGYDYWGQGTQVTVSS”, the “polyreactivity (PSR sort gate)” value was “high polyreactivity”. In the case of “QVQLVESGGGLVQAGGSLRLSCAASGFIFKSYAMGWYRQAPGKETELVAAISRSGSSTYYADSVKGRFTISRDNAKNTVYLQMNSLKPEDTAVYYCAKKGYRFIHFGYDYWGQGTQVTVSS”, the “polyreactivity (PSR sort gate)” value is reported as “high polyreactivity”. For “QVQLVESGGGLVQAGGSLRLSCAASGFIFKYYAMGWYRQAPGKERELVAAISRRGGSTFYADSVKGRFTISRDNAKNTVYLQMNSLKPEDTAVYYCAAYYYYSAYGDDYWGQGTQVTVSS”, the “polyreactivity (PSR sort gate)” value was “high polyreactivity”. With “QVQLVESGGGLVQAGGSLRLSCAASGFIFLFYAMGWYRQAPGKERELVAAISSGVSTNYADSVKGRFTISRDNAKNTVYLQMNSLKPEDTAVYYCNTTQSTSLLYDYWGQGTQVTVSS” the “polyreactivity (PSR sort gate)” value was “low polyreactivity”. In the case of “QVQLVESGGGLVQAGGSLRLSCAASGFIFLIYAIGWYRQAPGTERELVATIRYSGGRTYYADSVKGRFTISRDNAKNTVYLQMNSLKPEDTAVYYCAARSVWFSGQGRMNYWGQGTQVTGSS”, the “polyreactivity (PSR sort gate)” value is reported as “high polyreactivity”. With “QVQLVESGGGLVQAGGSLRLSCAASGFIFLPNDMGWYRQAPGKEREFVAAIDWSGGSTYYADSVKGRFTISRDNAKNTVYLQMNSLKPEDTAVYYCNAEGRRVGFRIDYDYWGQGTQVTVSS” the “polyreactivity (PSR sort gate)” value was “low polyreactivity”. In the case of “QVQLVESGGGLVQAGGSLRLSCAASGFIFLPYAMGWYRQEPGKERELVAAITRGGRTYYADSVKGRFTISRDNAKNTVSLQMNSLKPEVTAVSYFAATPYLFWGYNYWGQGTQVTVSS”, the “polyreactivity (PSR sort gate)” value is reported as “low polyreactivity”. With “QVQLVESGGGLVQAGGSLRLSCAASGFIFLSNAMGWYRQAPGKERELVAAITSGGSTNYADSVKGRFTISRDNAKNTVYLQMNSLKPEDTAVYYCAARAPQWTFALGRWDRDYWGQGTQVTVSS” the “polyreactivity (PSR sort gate)” value was “low polyreactivity”. With “QVQLVESGGGLVQAGGSLRLSCAASGFIFLSNGMVWYRQAPGKERELVAAISSSGGSTYYADSVKGRFTISRDTAKNTVYLQMNSLKPEDTAVYYCAKDNGPWFAYDYWGQGSQVTVSS” the “polyreactivity (PSR sort gate)” value was “low polyreactivity”. With “QVQLVESGGGLVQAGGSLRLSCAASGFIFLYNAMGWYRPAPGKERQLVAAITSSGATTYYADSVKGRFTISRDNAKNTDYLQMNSLKPEDTAVYYCAARYTGRNGGSTTPEYDYWGQGTQVTVSS” the “polyreactivity (PSR sort gate)” value was “low polyreactivity”. With “QVQLVESGGGLVQAGGSLRLSCAASGFIFLYNTMGWYRQAPGKERELVAAISGGGGSTSYADSVKGRFTISRDNAKNTVYLQMNSLKPEDTAVYYCAKKSTYYKWSRMYWGQGTQVTVSS” the “polyreactivity (PSR sort gate)” value was “high polyreactivity”. In the case of “QVQLVESGGGLVQAGGSLRLSCAASGFIFLYYAMGWYRPAPGKEGELVAAISRSGGRTYYADSVKGRFTISRDNAKNTVYLQMNSLKPEDTAGYYCAARSARTSSFPIFYYWGQGTQVTVSS”, the “polyreactivity (PSR sort gate)” value is reported as “high polyreactivity”. With “QVQLVESGGGLVQAGGSLRLSCAASGFIFLYYAMGWYRQAPGKERELVADISRGADTKYADSVKGRFTISRDNAKNTVYLQMNSLKPEDTAVYYCATDITTFWVPYPGVELGYWGQGTQVTVSS” the “polyreactivity (PSR sort gate)” value was “low polyreactivity”. In the case of “QVQLVESGGGLVQAGGSLRLSCAASGFIFNHYAMGWYRQAPGKEREFVAAISWSGGSTYYADSVKGRFTISRDNAKNTVYLQMNSLKPEDTAVYYCAASYNGLWHGDYDYWGQGTQVTVSS”, the “polyreactivity (PSR sort gate)” value is reported as “low polyreactivity”. For “QVQLVESGGGLVQAGGSLRLSCAASGFIFNKYAMGWYRPAPGKERELVARITSSGSRTYYADSVKGRFTISRDKAKNTVYLQMISLKPEDTAVYYCNTYYHWLTMDYWGQGTQVTVSS”, the “polyreactivity (PSR sort gate)” value was “high polyreactivity”. For “QVQLVESGGGLVQAGGSLRLSCAASGFIFNVNAMGWYRQAPGKEREFVAVSTYADSVKGRFTISRDNAKNTVYLQMNSLKPEDTAVYYCAATFVQPVYDYDYWGQGTQVTVSS”, the “polyreactivity (PSR sort gate)” value was “low polyreactivity”. With “QVQLVESGGGLVQAGGSLRLSCAASGFIFNWYAMGWYRQAPGKERELVAVITSSGGSTYYADSVKGRFTISRDNAKNTVYLQMNSLKPDDTAVYYCNKKPGPAPNKYRITARYYYWGQGTQVTVSS” the “polyreactivity (PSR sort gate)” value was “high polyreactivity”. With “QVQLVESGGGLVQAGGSLRLSCAASGFIFNYYTMGWYRQAPGKEREFVAAIRRSGTRTYYADSVKGRFTISRDNAKNTVYLQMNSLKPEDTAVYYCAARGTSPGHGTYTRTRGQRYYYWGQGTQVTVSS” the “polyreactivity (PSR sort gate)” value was “high polyreactivity”. For “QVQLVESGGGLVQAGGSLRLSCAASGFIFPDYAMGWYRQAPGKERELVAAISFRDGSTYYADSVKGRFTISRDNAKNTVYFQINSLKPEDTAVYYCNAGPQYDVHEYYYWGQGSQVTVSS”, the “polyreactivity (PSR sort gate)” value was “low polyreactivity”. For “QVQLVESGGGLVQAGGSLRLSCAASGFIFPFYAMGWYRQAPGKERELVAVIRTSSDRTYYADSVKGRFTISRDNAKNTVYLQMNSLKPEDTAVYYCAAETYRLFDYLGQGTQVTVSS”, the “polyreactivity (PSR sort gate)” value was “low polyreactivity”. For “QVQLVESGGGLVQAGGSLRLSCAASGFIFPGYAMGSYRQAPGKERELVAAISRRGGRTYYADSVKGRFTISRDNAKNTVYLQMNSLKPEDTAVYYCAAVVQSTQYICDYWGQGTQVTVSS”, the “polyreactivity (PSR sort gate)” value was “high polyreactivity”. In the case of “QVQLVESGGGLVQAGGSLRLSCAASGFIFPGYTRGWYRQAPGKEWELVAAISRGSSTYYADSVKGRFTISRDNAKNTVYLQMNSLKPEDTSVYYCNTRVYAITLYDYWGQGTQVTVSS”, the “polyreactivity (PSR sort gate)” value is reported as “low polyreactivity”. With “QVQLVESGGGLVQAGGSLRLSCAASGFIFPHYAMGGYRQAPGKERELIAAISKSGDSTYYADSVKGRFTISRDNAKNTVYLQMNSLKPEDTAVYYCARRGRSLRWKYDYWGQGTQVTVSS” the “polyreactivity (PSR sort gate)” value was “low polyreactivity”. For “QVQLVESGGGLVQAGGSLRLSCAASGFIFPLYAMGWYRQAPGKERELVAAITWRGDTTSYADSVKGSFTISRDNAKNTVYLQMNSLKPEDTAVYYCAAEFYDWWYYGGGEYWGQGTQVTVSS”, the “polyreactivity (PSR sort gate)” value was “high polyreactivity”. In the case of “QVQLVESGGGLVQAGGSLRLSCAASGFIFPRYAMGWYRPAPGTERELVAAISRSGGITRYADSVKGRFTISRDNAKNTVYLQINSLKPEDTAVYYCAAYIQGWVTAEWVRDDYWGQGTQVTVSS”, the “polyreactivity (PSR sort gate)” value is reported as “high polyreactivity”. For “QVQLVESGGGLVQAGGSLRLSCAASGFIFPSNAMGWYRQAPGKERELVAAISSRGTRTYYADSVKGRFTISRDNAKNTVYLQMNSLKPEDTAVYYCAKYGYWGQGTQVTVSS”, the “polyreactivity (PSR sort gate)” value was “high polyreactivity”. With “QVQLVESGGGLVQAGGSLRLSCAASGFIFPSNSMGWYRQAPGKEREFVAAISSRGGSTTYADSVKGRFTISRDYAKNTVYLQMNSLKPEDTAVYYCARDWYYYPQYRQRYYYWGQGTQVTVSS” the “polyreactivity (PSR sort gate)” value was “high polyreactivity”. For “QVQLVESGGGLVQAGGSLRLSCAASGFIFPSYAMGWYRQAPGKERELVAAISWTGGTYYADSEKGRFTISRDNAKNTVYFQMNSRKPEDTAVYYCAVRYKRKGSGYRTNAYDYWGQGTQVTVSS”, the “polyreactivity (PSR sort gate)” value was “high polyreactivity”. For “QVQLVESGGGLVQAGGSLRLSCAASGFIFPTNTMGWYRQAPGKEREFVARITRSGTNTYYADSVKGRFTISRDNAKNTVYLQMNSLKPEDTAVYYCARRGTSSYRRYWLDSASNMDYWGQGTQVTVSS”, the “polyreactivity (PSR sort gate)” value was “high polyreactivity”. With “QVQLVESGGGLVQAGGSLRLSCAASGFIFPVNAMGWYRQAPGKERELVAAITSSGGDTYYADSVKGRFTISRDNAKNTVYLQMNSLKPEDTAVYYCAAEYTQEQEDYDYWGQGTQVTVSS” the “polyreactivity (PSR sort gate)” value was “low polyreactivity”. In the case of “QVQLVESGGGLVQAGGSLRLSCAASGFIFPVNGMGWYRQAPGKERELVAGITRTGTSTYYADSVKGRFTISRDNAKYTVYLQMNSLKPEDTAVYYCAADLYTGRTKYWEFESWGQGTQVTVSS”, the “polyreactivity (PSR sort gate)” value is reported as “low polyreactivity”.
